Source: patent US20110183902A1

Target: mouse GCG-R (in pancreatic islets of mice) (mouse) (UniProt Q61606)
Test: cell-based or functional assay

mouse GCG-R (in pancreatic islets of mice) (mouse), sequence (Q61606 27-485): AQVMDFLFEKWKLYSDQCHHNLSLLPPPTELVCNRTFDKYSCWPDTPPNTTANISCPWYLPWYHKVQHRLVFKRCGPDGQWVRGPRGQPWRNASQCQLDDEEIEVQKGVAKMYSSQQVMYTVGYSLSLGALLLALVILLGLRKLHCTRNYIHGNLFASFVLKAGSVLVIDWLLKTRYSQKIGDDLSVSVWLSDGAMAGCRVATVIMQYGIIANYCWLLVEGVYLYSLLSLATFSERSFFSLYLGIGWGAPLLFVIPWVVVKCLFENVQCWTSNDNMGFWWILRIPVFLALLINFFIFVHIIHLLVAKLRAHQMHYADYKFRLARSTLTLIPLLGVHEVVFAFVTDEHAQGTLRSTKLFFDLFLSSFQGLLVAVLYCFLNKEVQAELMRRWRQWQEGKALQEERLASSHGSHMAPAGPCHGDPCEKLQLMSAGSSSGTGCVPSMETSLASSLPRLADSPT

fold-increase in fractional GSIS, GCG-R-/- islets relative to WT: 32 % reduction
Substance: native OXM peptide (species not stated, Example 11)
